The source of these data is PMC6212594, “Structural insights into the π-π-π stacking mechanism and DNA-binding activity of the YEATS domain” (Nature Communications, 2018).

Changes are numbered by the printed parent chain. Names and notes keep the numbering of the source. Where two headings read alike, the source gives them in different places. *1 amine or outer side, *2 acyl side, *3 side chain or, on linkers, in order; H or OH if unused. Where no end group is shown, it is not given here. The star is where a group is joined. Suc = O=C(CCC(=O)[*:2])[*:1]; Crotonyl(E) = C/C=C/C(=O)*; Propionyl = CCC(=O)*; Butyryl = CCCC(=O)*

Experiment [1] concerns the target T1, Taf14-YEATS G82A (Saccharomyces cerevisiae, UniProt P35189, G82A). The experiment is described as follows: biochemical. The format is binding, yeast.
Target sequence in this assay (P35189 1-137 G82A): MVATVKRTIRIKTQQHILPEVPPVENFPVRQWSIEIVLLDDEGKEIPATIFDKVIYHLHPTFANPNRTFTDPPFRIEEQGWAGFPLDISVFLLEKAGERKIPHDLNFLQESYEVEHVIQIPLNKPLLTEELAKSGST
Method: Kd value was calculated by a nonlinear least-squares analysis in Kaleidagraph using the1 Δδ=ΔδmaxL+P+Kd-L+P+Kd^2-4PL/2P where [L] is concentration of free acetyllysine, [P] is concentration of the protein, Δδ is the observed chemical shift change, and Δδmax is the normalized chemical shift change at saturation. Normalized chemical shift changes were calculated using the equation2 Δδ=ΔδH^2+ΔδN/5^2 where Δδ is the change in chemical shift in parts per million (ppm).
The target in experiment [2] is T1, Taf14-YEATS G82A. Briefly: biochemical.
In experiment [3] the target is T2, AF9-YEATS Y78W (Homo sapiens, UniProt P42568, Y78W).
T2 sequence (P42568 1-138 Y78W): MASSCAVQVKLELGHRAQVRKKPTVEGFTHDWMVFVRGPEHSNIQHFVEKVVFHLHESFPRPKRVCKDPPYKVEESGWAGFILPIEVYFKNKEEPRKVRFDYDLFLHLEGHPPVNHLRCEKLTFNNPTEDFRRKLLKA
The experiment is described as follows: Tryptophan fluorescence binding, AF9-YEATS Y78W. The conditions noted are these: 20 mM Tris pH 7.5, 500 mM NaCl, 2 mM BME, 25 °C, 1–2 µM protein, peptides aa 5–13, average of three separate experiments ± SD, read-out: Binding affinity Kd.

Experiment [4] addresses T3, AF9-YEATS domain (aa 1-138) (human, UniProt P42568 1-138).
T3 chain: T2 sequence (P42568 1-138 Y78W) with W78Y

Experiment [5] has as its target T4, AF9-YEATS domain (aa 1-138) (human, UniProt P42568 1-138).
T4 construct: AF9, human, YEATS domain, aa 1-138, in pET28b; His tag cleaved with thrombin; 15N-labelled for NMR; also called WT AF9-YEATS; source: E. coli BL21 (DE3) RIL, purified (nickel-NTA, ion exchange / size exclusion)
T4 sequence (looked up): T2 sequence (P42568 1-138 Y78W) with W78Y
The experiment is described as follows: other fluorescence titration; tryptophan fluorescence; 1-2 µM wild-type or mutated AF9 YEATS domain in 20 mM Tris pH 7.5, 500 mM NaCl, 2 mM BME, 25 °C, increasing concentrations of H3 peptide (aa 5-13). The settings on record: both partners purified.

For experiment [6], the target named is T5, Taf14 YEATS domain (yeast, UniProt P35189 1-137).
T5 chain: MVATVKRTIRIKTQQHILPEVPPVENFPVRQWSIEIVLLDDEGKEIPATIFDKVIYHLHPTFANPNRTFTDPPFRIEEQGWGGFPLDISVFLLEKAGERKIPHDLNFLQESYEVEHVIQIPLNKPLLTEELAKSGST

A further experiment concerns the target T6, Taf14-YEATS G82A (1-137) (yeast, UniProt P35189 1-137, G82A).
T6 construct: Taf14, yeast, YEATS domain, aa 1-137 with G82A (construct used for crystallization); Also crystallized in the apo state; also called G82A mutant; source: E. coli BL21 (DE3) RIL, purified
T6 sequence (looked up): T5 chain with G82A
The experiment is described as follows: crystal structure; Taf14-YEATS (1-137) with 5 (wild type) or 10 (G82A) molar equivalents of peptide; sitting drop, 18 °C, PEG 600, citric acid pH 6.0. The settings on record: both partners purified.

Experiment [7] concerns the target T4, AF9-YEATS domain (aa 1-138). The experiment is described as follows: crystal structure; AF9-YEATS (wild type or Y78W) at 6 mg/ml with two molar equivalents of peptide; sitting drop, 4 °C. The settings on record: both partners purified.
The next experiment addresses T7, AF9-YEATS Y78W/A79G (human, UniProt P42568 1-138, Y78W | A79G).
T7 sequence: T2 sequence (P42568 1-138 Y78W) with A79G

Another experiment addresses Taf14-YEATS W81Y (yeast, UniProt P35189 1-137, W81Y).
The subject of a further experiment is H3K9acyl. The conditions noted are these: cited from earlier work. An excerpt:
To assess how AF9-YEATS interacts with both H3K9acyl and DNA, we reconstituted H3K9acyl-containing nucleosome core particles (H3K9cr-NCPs and H3K9ac-NCP) and examined binding of AF9-YEATS to these NCPs and to unmodified NCP in EMSA.

The next experiment concerns the target T8, Taf14-YEATS (1-137) (yeast, UniProt P35189 1-137).
T8 construct: Taf14, yeast, YEATS domain, aa 1-137 (construct used for crystallization); GST tag probably cleaved for crystallization (surmise); also called wild-type Taf14-YEATS; source: E. coli BL21 (DE3) RIL, purified (glutathione Sepharose 4B, size exclusion)
T8 sequence (looked up): T5 chain
Briefly: crystal structure; Taf14-YEATS (1-137) with 5 (wild type) or 10 (G82A) molar equivalents of peptide; sitting drop, 18 °C, PEG 600, citric acid pH 6.0. The conditions noted are these: both partners purified.

For experiment [8], the target named is T5, Taf14 YEATS domain. The experiment is described as follows: other fluorescence titration; tryptophan fluorescence; 1-2 µM wild-type or mutated Taf14 YEATS domain in PBS pH 7.4, 25 °C, increasing concentrations of H3 peptide (aa 5-13); excitation 295 or 280 nm.
For experiment [9], the target named is T5, Taf14 YEATS domain. Briefly: NMR.
Experiment [10] deals with T9, AF9-YEATS Y78W (human, UniProt P42568 1-138, Y78W).
T9 construct: AF9, human, YEATS domain, aa 1-138 with Y78W; also called Y78W mutant; source: E. coli BL21 (DE3) RIL, purified
T9 sequence (looked up): T2 sequence (P42568 1-138 Y78W)
The experiment is described as follows: crystal structure; AF9-YEATS (wild type or Y78W) at 6 mg/ml with two molar equivalents of peptide; sitting drop, 4 °C. The conditions noted are these: both partners purified.

The target in experiment [11] is T10, AF9-YEATS Y78W (human, UniProt P42568 1-138, Y78W).
T10 sequence: T2 sequence (P42568 1-138 Y78W)

Experiment [12] has as its target T9, AF9-YEATS Y78W. The experiment is described as follows: other fluorescence titration; tryptophan fluorescence; 1-2 µM wild-type or mutated AF9 YEATS domain in 20 mM Tris pH 7.5, 500 mM NaCl, 2 mM BME, 25 °C, increasing concentrations of H3 peptide (aa 5-13). The settings on record: both partners purified.

`C/C=C/C(=O)NCCCC[C@H](NC(=O)[C@H](CCCNC(=N)N)NC(=O)[C@H](C)NC(=O)[C@@H](NC(=O)[C@@H](N)CCC(N)=O)[C@@H](C)O)C(=O)N[C@@H](CO)C(=O)N[C@H](C(=O)NCC(=O)NCC(=O)O)[C@@H](C)O` [H3K9cr]: at Taf14-YEATS G82A [1] (from NMR titration data for H3K9ac, author's response in peer review file), the “Selectivity of G82A mutant for H3K9cr (over H3K9ac)” value is on record as “greater than 80 -fold”. The results for the Kd at Taf14-YEATS G82A [2] and on AF9-YEATS Y78W [3] were 124 µM and 2 µM, respectively.
The molecule `CC(=O)NCCCC[C@H](NC(=O)[C@H](CCCNC(=N)N)NC(=O)[C@H](C)NC(=O)[C@@H](NC(=O)[C@@H](N)CCC(N)=O)[C@@H](C)O)C(=O)N[C@@H](CO)C(=O)N[C@H](C(=O)NCC(=O)NCC(=O)O)[C@@H](C)O` [H3K9ac] came in with a Kd at Taf14-YEATS G82A [1] above 10000 µM.

B1: histone H3K9cr peptide (aa 5-13) (peptide, UniProt P68431 6-14, looked up)
peptide: QTARK(Crotonyl(E))STGG
notes: histone H3, residues 5-13, K9 crotonylated; also called H3K9cr (5-13); source: bought: Synpeptide
Regarding B1, the values for the Kd (in [4]; with Taf14 YEATS domain [6]) were 3.7 µM and 9 µM, respectively. Further, the binding result (in experiment [5]; with Taf14-YEATS G82A (1-137)) was “binds” in each case.

B2: histone H3K9bu (1-19) peptide (peptide, UniProt P68431 2-20, looked up)
peptide: ARTKQTARKSTGGKAPRKQ
modifications: butyryllysine at K9
notes: histone H3, residues 1-19, K9 butyrylated
In the case of B2, the binding result in [7] was “binds”.
As for QTARK(Crotonyl(E))STGG [histone H3K9cr peptide (limits not stated)], the Kd with AF9-YEATS Y78W/A79G is 2.7 µM; in the experiment with Taf14-YEATS W81Y, 9.2 µM.

B3: AF9-YEATS F59A/Y78A: AF9-YEATS mutant defective in H3K9acyl binding (protein)
chain: T2 sequence (P42568 1-138 Y78W) with F59A, W78A
modifications: left off: His tag, end not stated, cleaved
For B3, the “H3K9acyl binding of mutant” value in the experiment with H3K9acyl is listed as “defective in H3K9acyl binding”.

B4: histone H3K9bu peptide (aa 5-13) (peptide, UniProt P68431 6-14, looked up)
peptide: QTARK(Butyryl)STGG
notes: histone H3, residues 5-13, K9 butyrylated; also called H3K9bu (5-13); source: bought: Synpeptide
On to B4, for which the Kd with Taf14-YEATS W81Y worked out at 40 µM; in experiment [4], 3.9 µM; with Taf14 YEATS domain [6] it was 28 µM. The binding result (in [5]; with Taf14-YEATS (1-137)) was “binds” each time. In the experiment with Taf14 YEATS domain [8], the fold reduction of binding against H3K9cr was determined as 3 fold.
QTARK(Suc)STGG [histone H3K9su peptide] displayed a Kd in the experiment with Taf14 YEATS domain [9] above 700 µM.

B5: histone H3K9cr (5-14) peptide (peptide, UniProt P68431 6-15, looked up)
peptide: QTARK(Crotonyl(E))STGGK
notes: histone H3, residues 5-14, K9 crotonylated
On to B5, for which the binding result in the experiment with AF9-YEATS Y78W [10] was “binds”.
For the molecule QTARK(Ac)STGG [histone H3K9ac peptide (limits not stated)], binding in the experiment with AF9-YEATS Y78W/A79G was put at a Kd of 2.6 µM.

B6: histone H3K9pr (5-13) peptide (peptide, UniProt P68431 6-14, looked up)
peptide: QTARK(Propionyl)STGG
notes: histone H3, residues 5-13, K9 propionylated; also called propionylated H3K9pr peptide
For B6, the binding result in the experiment with Taf14-YEATS (1-137) was “binds”.

B7: histone H3K9ac peptide (aa 5-13) (peptide, UniProt P68431 6-14, looked up)
peptide: QTARK(Ac)STGG
notes: histone H3, residues 5-13, K9 acetylated; source: bought: Synpeptide
As for B7, the dissociation constant (Kd) is 2.3 µM with AF9-YEATS Y78W [11], 4.3 µM in experiment [4], 2 µM in the experiment with AF9-YEATS Y78W [12] and 130 µM with Taf14 YEATS domain [6]. The binding result in experiment [5] is on record as “binds”.
